This is an account of results in article PMC7715031.

This test concerns the target VISTA-Fc human recombinant protein (human), Q9H7M9. Kind of test: synchrotron radiation circular dichroism (SRCD) titration; fixed concentration of VISTA-Fc (or human Ig-Fc) and increasing concentrations of galectin-9, in solution; 23°C. As to conditions: remark: other sources report otherwise.

B1: human recombinant galectin-9, O00182 1-355 (ligand)
chain: MAFSGSQAPYLSPAVPFSGTIQGGLQDGLQITVNGTVLSSSGTRFAVNFQTGFSGNDIAFHFNPRFEDGGYVVCNTRQNGSWGPEERKTHMPFQKGMPFDLCFLVQSSDFKVMVNGILFVQYFHRVPFHRVDTISVNGSVQLSYISFQNPRTVPVQPAFSTVPFSQPVCFPPRPRGRRQKPPGVWPANPAPITQTVIHTVQSAPGQMFSTPAIPPMMYPHPAYPMPFITTILGGLYPSKSILLSGTVLPSAQRFHINLCSGNHIAFHLNPRFDENAVVRNTQIDNSWGSEERSLPRKMPFVRGQSFSVWILCEAHCLKVAVDGQHLFEYYHRLRNLPTINRLEVGGDIQLTHVQT
For orientation: Kd means a measure of binding affinity in units of concentration. In the case of B1, the Kd turned out to be 18 nM.
